Data: patent publication US5637463

How the values were obtained:
Experiment in all cases: yeast two-hybrid with co-expressed Lck, LacZ reporter
[1] = target: LexA-FcεRIγCT double mutant with Tyr64 and Tyr75 changed to phenylalanine, co-expressed with Lck (E. coli; human) (UniProt P0A7C2)
[2] = target: LexA-FcεRIγCT mutant with Tyr64 changed to phenylalanine, co-expressed with Lck (E. coli; human) (UniProt P0A7C2)
[3] = target: LexA-FcεRIγCT mutant with Tyr75 changed to phenylalanine, co-expressed with Lck (E. coli; human) (UniProt P0A7C2)
[4] = target: LexA-NLS-FcεRIγ CT fusion protein, co-expressed with Lck (tyrosine-phosphorylated) (E. coli; human) (UniProt P0A7C2)
[5] = target: LexA-βCT fusion protein (C-terminus of the rat β subunit of FcεRI), co-expressed with Lck (E. coli; rat)

Substance	Galactosidase units (Galactosidase units) [1]	Galactosidase units (Galactosidase units) [2]	Galactosidase units (Galactosidase units) [3]	Galactosidase units (Galactosidase units) [4]	Galactosidase units (Galactosidase units) [5]
Vmw65-Lyn SH2 fusion protein (human Lyn amino acids 124-229) (from UniProt P06492)	0	0	0	0	858
Vmw65-SykN SH2 fusion protein (human Syk amino acids 11-111) (from UniProt P06492)	0	0	0	0	0
Vmw65-Syk N+C SH2 fusion protein (human Syk amino acids 11-262) (from UniProt P06492)	0	0	0	559	1070
Vmw65-SykC SH2 fusion protein (human Syk amino acids 173-262) (from UniProt P06492)	0	0	0	0	593
